Laboratory results taken from the supplement of paper PMC6755084.

B1: minF1; a variant is named by its letters at N, in order (parent)
chain: GAGACCGCAACTGAAAAGTTGTTATCAGAAATGNNNGGNTNNNTTTCTGCACGTAGAAGCAAAAGGC
B2: minF1; a variant is named by its letters at N, in order (parent)
chain: GAGACCGCAACTGAAAAGTTGTTANNNNAANGNNNGGTTGAATTTCTGCACGTAGAAGCAAAAGGC
B3: minF1; the commonest letter at each place (parent)
chain: GAGACCGCAACTGAAAAGTTGTTATCAGAAATGGATGGGTTGAATTTCTGCACGTAGAAGCAAAAGGC

Variants of: B1
Test: fraction ligated after 30 min (ligated reads / total reads); higher = more ligase activity
Details: with F1*subA RNA substrate (template-directed ligation), 42 °C
In short: (§1)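 Templates from an oligo pool encoding minimized ligase ribozyme variants were amplified by PCR, transcribed with T7, and purified on gels. Gel electrophoresis separated ligated from unligated RNAs, which were then reverse transcribed using barcoded primers and sequenced on a MiSeq, keeping core bases with quality ≥30. For each variant, fraction ligated equals ligated reads divided by total reads.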

| Variant | fraction ligated |
| --- | --- |
| ATGTGAA T23A A24T T25C C26A A27G G28A A31T T32G | 0.228 |
| ATGTGAA A27G G28A A31T T32G | 0.733 |
| GAGTGAA | 0.00382 |
| GTGTGAA | 0.0136 |
| ATGTGAA | 0.0281 |
| ATGTGAA A24T T25C C26A A27G G28A A31T T32G | 0.0261 |
| ATGTGAA G28A A31T T32G | 0.52 |
| GATGTGC | 0.00735 |
| GATGTGA | 0.844 |
| GATGTGG | 0.00509 |
| GATGTGT | 0.00586 |
| ATGTGAA C26A A27G G28A A31T T32G | 0.0728 |
| GATGTCA | 0.0146 |
| GATGTCC | 0.00223 |
| GATGTCG | 0.00256 |
| GATGTCT | 0.00139 |
| ATGTGAA A31T T32G | 0.65 |
| ATGTGAA T32G | 0.0137 |
| ATGTGAA T25C C26A A27G G28A A31T T32G | 0.0163 |
| GATTGAA | 0.023 |
| GATGTAA | 0.175 |
| GATGTAG | 0.00461 |
| GATGTAC | 0.00239 |
| GATGTAT | 0.00414 |
| GATGTTC | 0.00331 |
| GATGTTT | 0.000955 |
| GATGTTA | 0.0473 |
| GATGTTG | 0.00218 |

Variants of: B2
Test: as above
Details: with F1*subA RNA substrate (template-directed ligation), 42 °C
In short: as §1

| Variant | fraction ligated |
| --- | --- |
| TCAGAATG | 0.00903 |
| TAGATGAT T38G G40T | 0.00516 |
| TAGATGAG | 0.00428 |
| TAGATGAT | 0.00267 |
| CAGATATG A24T | 0.00546 |
| CAGATGTG A24T | 0.00498 |
| CAGATATG T23A A24T | 0.00616 |
| TCAGAGAT G32T T38G G40T | 0.00839 |
| CAGATGAG T23A A24T | 0.00151 |
| TCAGAGAG G32T | 0.011 |
| TAGATGTG | 0.00059 |
| CAGAGATG T23A A24T A30T | 0.0668 |
| CAAAGATG A30T | 0.00974 |
| TCAATGAT T38G G40T | 0.0188 |
| CAAAGATG A24T A30T | 0.0148 |
| CAGATGTG | 0.00446 |
| TCAGAATG G32T | 0.00623 |
| TCAGAGAT | 0.00503 |
| TCAGAGAG | 0.00214 |
| CAGAGATG A24T | 0.00326 |
| TCAAGATG A30T | 0.111 |
| CAGATATG | 0.00456 |
| CAGATGTG T23A A24T | 0.00275 |
| CAGATGAG | 0.00664 |
| CAGATGAT | 0.0096 |
| CAGATGAT T38G G40T | 0.00757 |

| Variant | fraction ligated |
| --- | --- |
| TCAATGAT T38G G40T A41G | 0.302 |
| CAGAGATG A24T A30T | 0.0149 |
| TCAATATG | 0.00928 |
| CAGATGAT T23A A24T T38G G40T A41G | 0.0927 |
| CAGATGAT T23A A24T | 0.0249 |
| CAGATGAT T38G G40T A41G | 0.0186 |
| TCAAGATG | 0.00472 |
| CAGAGATG A30T | 0.0134 |
| CAGAGATG | 0.00233 |
| TAGAGATG | 0.00517 |
| CAGATGAG A24T | 0.00352 |
| TAAAGATG A30T | 0.021 |
| CAAAGATG T23A A24T A30T | 0.0275 |
| TAGAGATG A30T | 0.0449 |
| CAGAGATG T23A A24T | 0.00547 |
| CAGATGAT A24T T38G G40T A41G | 0.0273 |
| TCAATGAG | 0.00836 |
| TCAATGAT | 0.0159 |
| CAGATGAT A24T T38G G40T | 0.00536 |
| TCAATGTG | 0.00417 |
| CAGATGAT A24T | 0.00819 |
| TAGATGAT T38G G40T A41G | 0.025 |
| TCAGAGAT G32T | 0.00472 |
| CAGATGAT T23A A24T T38G G40T | 0.0102 |
| TAGATATG | 0.00408 |

Variants of: B3
Test: as above
Details: with F1*subA RNA substrate (template-directed ligation), 42 °C
In short: as §1

| Variant | fraction ligated |
| --- | --- |
| A35T G42C | 0.00256 |
| A35T G42T | 0.00285 |
| A35T G42A | 0.00343 |
| G42A A43C A44T | 0.00211 |
| G42A A43C A44G | 0.00203 |
| G42A A43C A44C | 0.00102 |
| A43G A44T | 0.00618 |
| A43G A44G | 0.00367 |
| A43G A44C | 0.00393 |
| G34A G42A | 0.0111 |
| G34A G42C | 0.00302 |
| G34A G42T | 0.00582 |
| A43T A44C | 0.00191 |
| A43T A44G | 0.00469 |
| A43T A44T | 0.00531 |
| T36A G42A | 0.00342 |
| T36A G42T | 0.00416 |
| T36A G42C | 0.0064 |
| A35G G37C | 0.0017 |
| A35G G37T | 0.00458 |
| A35G G37A | 0.00295 |
| T36A A44C | 0.00684 |

| Variant | fraction ligated |
| --- | --- |
| T36A A44G | 0.00875 |
| T36A A44T | 0.012 |
| T36C G42T | 0.00209 |
| T36C G42A | 0.00494 |
| T36C G42C | 0.00306 |
| G34C A44C | 0.00339 |
| G34C A44T | 0.00566 |
| G34C A44G | 0.00318 |
| G34A A35C | 0.00719 |
| G34A A35G | 0.00813 |
| G34A A35T | 0.0147 |
| G42T | 0.117 |
| G42C | 0.0127 |
| G42A | 0.364 |
| G37A A43G | 0.00388 |
| G37A A43T | 0.00461 |
| G37A A43C | 0.00236 |
| G42T A44G | 0.0143 |
| G42T A44C | 0.00596 |
| G42T A44T | 0.0246 |
| G42C A43G | 0.0762 |
| G42C A43C | 0.00394 |

| Variant | fraction ligated |
| --- | --- |
| G42C A43T | 0.00312 |
| G37C G42A | 0.00281 |
| G37C G42C | 0.00331 |
| G37C G42T | 0.00137 |
| G34T A44T | 0.00748 |
| G34T A44C | 0.00445 |
| G34T A44G | 0.00592 |
| A35C T36C | 0.00473 |
| A35C T36G | 0.00841 |
| A35C T36A | 0.00922 |
| G34C G42T | 0.00284 |
| G34C G42A | 0.00229 |
| G34C G42C | 0.00271 |
| G34A G37A | 0.00394 |
| G34A G37C | 0.00312 |
| G34A G37T | 0.00793 |
| T41C | 0.86 |
| T41G | 0.146 |
| T41A | 0.689 |
| G42A A44G | 0.0717 |
| G42A A44T | 0.0746 |
| G42A A44C | 0.024 |

| Variant | fraction ligated |
| --- | --- |
| A35G A44C | 0.0421 |
| A35G A44T | 0.105 |
| A35G A44G | 0.0773 |
| G34T G37C | 0.00496 |
| G34T G37T | 0.00356 |
| G34T G37A | 0.00473 |
| G37C A43C | 0.00193 |
| G37C A43G | 0.00302 |
| G37C A43T | 0.00493 |
| T36A G37A | 0.00486 |
| T36A G37T | 0.0153 |
| T36A G37C | 0.00357 |
| T36C G37C | 0.0038 |
| T36C G37A | 0.00566 |
| T36C G37T | 0.00876 |
| T36C A44G | 0.00651 |
| T36C A44T | 0.0101 |
| T36C A44C | 0.00404 |
| G42T A43T A44G | 0.000847 |
| G42T A43T A44C | 0.00206 |
| G42T A43T A44T | 0.00186 |
| A35T G37T | 0.00238 |
